Assays:
[1] = target: MmpL3-D1 (MmpL3 residues 32 – 187) (Mycobacterium tuberculosis) (UniProt P9WJV5); test: BLI
[2] = target: MmpL11-D1 (MmpL11 residues 41 – 187) (Mycobacterium tuberculosis) (UniProt P9WJT9); test: BLI
UniProt P9WJT9, sequence (P9WJT9 41-187): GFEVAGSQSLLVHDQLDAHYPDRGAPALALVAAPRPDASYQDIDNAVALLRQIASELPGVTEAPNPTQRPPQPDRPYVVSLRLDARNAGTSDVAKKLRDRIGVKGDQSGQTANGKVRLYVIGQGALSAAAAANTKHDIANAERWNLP

UniProt P9WJV5, sequence (P9WJV5 32-187): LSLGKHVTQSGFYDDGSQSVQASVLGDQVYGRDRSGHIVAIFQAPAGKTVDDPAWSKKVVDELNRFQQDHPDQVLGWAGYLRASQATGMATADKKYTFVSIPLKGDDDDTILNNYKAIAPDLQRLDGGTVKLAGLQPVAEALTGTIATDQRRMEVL

Row | Substance | Kd [1] | Kd [2]
1 | MmpL3-D2 (MmpL3 residues 419 – 560) (from UniProt P9WJV5 419-560) (domain or fragment) | 4.1 µM | 
2 | MmpL11-D2 (MmpL11 residues 390 – 529) (from UniProt P9WJT9 390-529) (domain or fragment) |  | 4.5 µM

— publication PMC4546533
